From patent publication US20110229525A1 (VANDERBILT UNIVERSITY, published 2011)

Target: JAK2 (UniProt Q62120 1-1132)
Assay: cell-based or functional assay

Sequence of JAK2 (Q62120 whole entry): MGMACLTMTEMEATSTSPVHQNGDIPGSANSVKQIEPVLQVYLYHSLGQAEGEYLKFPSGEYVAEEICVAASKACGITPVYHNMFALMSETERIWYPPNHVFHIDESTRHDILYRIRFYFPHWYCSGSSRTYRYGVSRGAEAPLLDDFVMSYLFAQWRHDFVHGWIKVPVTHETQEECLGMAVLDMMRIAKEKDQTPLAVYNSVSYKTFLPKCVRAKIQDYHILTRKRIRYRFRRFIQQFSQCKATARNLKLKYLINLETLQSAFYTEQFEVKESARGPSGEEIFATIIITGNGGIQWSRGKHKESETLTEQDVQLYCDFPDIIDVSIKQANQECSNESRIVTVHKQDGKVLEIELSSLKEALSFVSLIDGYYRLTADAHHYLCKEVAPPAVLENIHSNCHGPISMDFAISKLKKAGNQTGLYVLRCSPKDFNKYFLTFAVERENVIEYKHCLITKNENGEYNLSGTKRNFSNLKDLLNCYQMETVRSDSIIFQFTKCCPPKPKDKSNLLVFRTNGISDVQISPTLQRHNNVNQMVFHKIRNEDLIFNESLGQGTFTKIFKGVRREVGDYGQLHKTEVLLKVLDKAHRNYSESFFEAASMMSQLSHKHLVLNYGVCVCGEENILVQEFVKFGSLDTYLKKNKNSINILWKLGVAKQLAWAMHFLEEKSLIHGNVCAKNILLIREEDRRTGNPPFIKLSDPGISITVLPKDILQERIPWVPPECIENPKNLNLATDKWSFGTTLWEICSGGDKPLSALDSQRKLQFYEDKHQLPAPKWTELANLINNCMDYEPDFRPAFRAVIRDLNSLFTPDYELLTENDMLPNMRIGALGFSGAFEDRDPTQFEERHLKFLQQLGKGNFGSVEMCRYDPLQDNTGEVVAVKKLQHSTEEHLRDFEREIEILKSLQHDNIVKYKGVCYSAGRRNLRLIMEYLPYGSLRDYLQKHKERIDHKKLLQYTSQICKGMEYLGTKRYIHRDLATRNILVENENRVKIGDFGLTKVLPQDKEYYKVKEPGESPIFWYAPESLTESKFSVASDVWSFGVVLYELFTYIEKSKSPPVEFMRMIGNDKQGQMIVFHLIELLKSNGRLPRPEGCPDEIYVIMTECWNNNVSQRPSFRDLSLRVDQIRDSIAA

B1: CP-SOCS1 (recombinant cell-penetrating murine SOCS1 with MTM and 6x histidine tag) (other, human;murine, UniProt P08620 7-22, looked up, not shown: small tags and cut ends)
chain: AAVALLPAVLLALLAPMVARNQVAADNAISPAAEPRRRSEPSSSSSSSSPAAPVRPRPCPAVPAPAPGDTHFRTFRSHSDYRRITRTSALLDACGFYWGPLSVHGAHERLRAEPVGTFLVRDSRQRNCFFALSVKMASGPTSIRVHFQAGRFHLDGSRETFDCLFELLEHYVAAPRRMLGAPLRQRRVRPLQELCRQRIVAAVGRENLARIPLNPVLRDYLSSFPFQI
For B1, the “concentration of CP-SOCS1 that inhibited phosphorylation of STAT1 by 50% (IC50), AMJ2.C8 macrophages stimulated with IFN-g and LPS” value was < 1900 µM.
